Laboratory results from the DeepSol protein solubility set.

assay: soluble on expression in E. coli; label from the status in PepcDB or PDB records

Sequence	soluble on expression in E. coli
MHEITLCQRALELIEQQASAYGAKRVTAVWIKIGAFSCVETSALSFCFDLVCRGTIAEGCKLHLEEQEAECWCEHCQQYVTLLTHRVRRCPQCHSDTLRIVADDGLQIRRIEIDETED	not soluble
MGSDKIHHHHHHMYQPGIVFLFSGHKIGYINERTFRYDTNEYLLLTVPLPFECETFATPEVPLAGMRLNVDILQLQELLMDIGEDPLFQPAVASSGINSAVLSEDILCAAERLLDVMERPLDARILGKQIVREILYYVLTGPCGGALLALVSRQTHFSLISRVLKHIESQYTENLSVDRLAAEANMSVSAFHHNFKAVTSTSPLQYLKNYRLHKARMLMIHDGMKASAAAMRVGYESPSQFSREFKRYFGLTPGEDAARIRTMQGM	not soluble
MVAQNPTSISSGGRKQPQKQDKVQKKQLKKIYVVKIKRIPFGFFEKELLGYFRQFGNVLRIRVARNRRTGNHKGWAYVGFDNKAVAEIAAESMNGYLMFEQRLGCTVMKPELIPKAMRHGPLLVMRPSYLGIAKKDTIARNNTTGKNDVINAKKRVQNLNKTLKKLQNMGINYDFSVSGTPRTPLKKVIDNEVQFISDVTPKSTTPKIVKAATPKAATPKAVTPKQATPKVSTPVTKKVVIKTPKTEKPEPKQFTPKTRAGKKAAAAATPQAKSTLSNTILKSVAASARPAAVEKKTLRSRGKKKSL	soluble
MSLIYLLNETPFEGVENLILNEIVFYDFSVDLSLYDALICTSKNALKALQHAKITLNFKLNLYAVGQSTAQYAKNLGFKKIKIPSKAYGKDLFLEFKEELKMQKCLYLRAKNIVSTLNLDLKNVGVDLDEMIVYENVFKKGDKKLIHPAIFIFTSPLSVENFLKFYSLKEEDKVVVIGQSTAKKLLNFKNLYICENQSLLNCVKLAKTLVEGHHHHHH	not soluble
MGVSPAAPASGIRRPCYLVLSSHDFRTPRRANIHFITDQLALRGTTRFFSLRYSRLSRMKGDMRLPLDDTANTVVSHNGVDCYLWRTTVHPFNTRRSWLRPVEDAMFRWYAAHPPKQLLDWMRESDVIVFESGIAVAFIELAKRVNPAAKLVYRASDGLSTINVASYIEREFDRVAPTLDVIALVSPAMAAEVVSRDNVFHVGHGVDHNLDQLGDPSPYAEGIHAVAVGSMLFDPEFFVVASKAFPQVTFHVIGSGMGRHPGYGDNVIVYGEMKHAQTIGYIKHARFGIAPYASEQVPVYLADSSMKLLQYDFFGLPAVCPNAVVGPYKSRFGYTPGNADSVIAAITQALEAPRVRYRQCLNWSDTTDRVLDPRAYPETRLYPHPPTAAPQLSSEAALSHHHHHHH	soluble
MVDLKRLRQEPEVFHRAIREKGVALDLEALLAVDEQLHKQQEVIADKQMSVKEDLDKVEPAVIEAQNAVKSIKKQHLVEVRSMANPPAAVKLALESIALLLGESTTDWKQIRSIIMRENFIPTIVNFSAEEISDAIREKMKKNYMSNPSYNYEIVNRASLAAGPMVKWAIAQLNYADMLKRVEPLRNELQKLEDDAKDNQQKLEALLLQVPLPPWPGAPVGGEEANREIKRVGGPPEFSFPPLDHVALMEKNGWWEPRISQVSGSRSYALKGDLALYELALLRFAMDFMARRGFLPMTLPSYAREKAFLGTGHFPAYRDQVWAIAETDLYLTGTAEVVLNALHSGEILPYEALPLRYAGYAPAFRSEAGSFGKDVRGLMRVHQFHKVEQYVLTEASLEASDRAFQELLENAEEILRLLELPYRLVEVATGDMGPGKWRQVDIEVYLPSEGRYRETHSCSALLDWQARRANLRYRDPEGRVRYAYTLNNTALATPRILAMLLENHQLQDGRVRVPQALIPYMGKEVLEPGAHHHHHH	soluble
MGSDKIHHHHHHMTIIAGTVVKGKQLGRKLGFPTANVDAKIHGLRNGVYGVLATVNHQFHLGVMNIGVKPTVGSNLEKTLEIFLFDFHRDIYGEKIECSILFKIREERRFDSLESLTKQIKKDISCVAKRFELIGIMAPNKKESLLSHQELNLPDLCFYKKCNNLYGVNRGVYNVIDNWFFEYGITQVAYRRIYILSFLSFLKEDNPKVSSKYIRFGAGGLADKLNRFISSYVEESEENILG	not soluble
MIRFIIPLMDCARLYGRPVQFKTERTDINSLMFGLPKLPSVDYFAEEEIAHLMTQEFNPLKEKDTDDTMALTMSRFSSYLQERMTKVSKRNTELNFRTFSDVMGMYNTTRDHSKLNCMSDKDNSVKEFSLSDKSNVSSETTNMMNQLQVNAHEYKSSMCERPIVASTSPIA	not soluble
